Here are results for three molecules from patent US20250129146A1, “COMBINED CANCER THERAPY WITH AN EPITHELIAL CELL ADHESION MOLECULE (EPCAM) INHIBITOR AND A WNT INHIBITOR” (ACADEMIA SINICA, priority 2021, published 2025).

Entries after “also recorded” stand apart in the source; their conditions may differ.

Experiment [1] concerns Wnt receptor promoters (LRP5, LRP6, FZD6, FZD7). In words: Wnt receptor promoter luciferase reporter assay. The settings on record: cells transfected with EpCAM plasmid; overnight DAPT treatment. The format is cell-based, human. On the procedure: (§1) The cells were seeded in 24-well plates (1×10^4 cells/well) and incubated at 37° C. for 24 h. The culture media were refreshed, and the cells were transfected with respective reporter plasmids (TCF reporter or Wnt receptor promoter reporter) by PolyJET (SignaGen). The transfected efficiency was normalized by co-transfected with pRL-TK (20 ng) as an internal control. Additional treatments were conducted as indicated. Firefly luciferase and Renilla luminescence were measured 48 h post-transfection using the Dual-Glo Luciferase Assay System (Promega), according to the manufacturer's recommendations.
The putative promoter regions of LRP5 (−1187 to +200), LRP6 (−1543 to +55), FZD6 (−1385 to +205) and FZD7 (−1285 to +116) were cloned from HeLa genomic DNA and fused to pGL4.18 plasmid (Promega, USA). The genomic DNA was extracted using a Genomic DNA Isolation Kit (NovelGene, TW) according to the manufacturer's recommendations.

The test system of experiment [2] is Wnt receptors (FZD6/7, LRP5/6). In words: Wnt receptor protein and mRNA expression (western blot, qPCR). It is filed as cell-based, human. The settings on record: HT29 and HCT116 cells; overnight DAPT treatment. The method, then: (§2) For western blotting, cells were extracted using radioimmunoprecipitation assay (RIPA) buffer [(0.01 M sodium phosphate, pH 7.2), 150 mM NaCl, 2 mM EDTA, 50 mM NaF, 1% Nonidet P-40, 1% sodium deoxycholate, and 0.1% SDS)] containing phosphatase inhibitor (Roche) and protease inhibitor (Roche) cocktail. Equal amounts of protein were separated by SDS-PAGE and then transferred to PVDF membranes. The membranes were blocked with 3% BSA in TBST (Blocking solution) and incubated with necessary primary antibodies in the blocking solution overnight at 4° C. Membranes were then incubated with HRP-conjugated secondary antibodies in the blocking solution for 1 h at room temperature, and protein expression were detected. Antibodies used: anti-α-tubulin (Sigma), anti-EpCAM (abeam), anti-Active β-Catenin (Millipore), anti-total β-Catenin (abeam), anti-Frizzled 6 (CST), anti-Frizzled 7 (Santa Cruz Biotech), anti-LRP5 (abcam), anti-Phospho-LRP5 (abcam), anti-Phospho-LRP6 (CST), anti-LRP6 (CST) and anti-EpEX antibody EpAb3-5 (Produced in house), anti-ADAM17 (abcam), anti-phopho-ADAM17 (abcam), anti-Presenilin2 (abcam), anti-phospho-Presenilin2 (S327) (abcam), anti-phospho-Presenilin2 (S330) (abcam) and anti-Axin2 (CST).
Total RNA was extracted using TRI reagent and 5 μg of the total RNA was further reverse-transcribed using oligo (dT) primer with reverse transcriptase. Quantitative real time RT-PCR (qPCR) was performed on cDNA using the Light Cycler 480 SYBR Green-I Master kit and the LightCycler480 System. The gene expression levels of each sample were normalized to the expression levels of glyceraldehyde 3-phosphate dehydrogenase (GAPDH) or β-actin.
Background: A western blot detects proteins with antibodies after separation by electrophoresis.

Experiment [3] has as its system active β-Catenin. Description: Nuclear translocation of β-Catenin (immunofluorescence staining; cell fractionation with western blot). It is filed as cell-based, human. On the procedure:
Cells (1×10^6) were seeded overnight and further allowed to grow in serum free conditions. Then cells were further treated with 20 μg/mL mEpAb2-6 or hEpAb2-6 or MT201 for 6 h or with 400 ng/mL LGK974 (MedChemExpress) for 9 h or combination as indicated. Samples were fractioned into cytosol and nuclear extracts using nuclear/cytosol fractionation kit (Biovision) according to the manufacturer's protocol. The fractions were then subjected to western blot analysis.
as §2
Glass slides were used in 24-well plates and coated with 0.1% gelatin. Further, 3×10^4 cells were seeded in serum free medium overnight. Cells were treated with 20 μg/mL EpAb2-6 for 6 h, or 400 ng/mL LGK974 (MedChemExpress) for 9 h or the combination. Cells were washed using ice-cold PBS and fixed with 4% paraformaldehyde for 15 min at RT and washed with ice-cold PBS. Further, cells were permeabilized using 0.1% triton-X in PBS for 20 min and subsequently washed with PBS. Cells were blocked with 3% BSA in PBS for 1 h at RT. Next, cells were treated with primary antibody anti-Active β-Catenin (Millipore) overnight. Then, cells were washed and treated with secondary antibody in 3% BSA containing PBS along with DAPI for 1 h at RT. Samples were then washed in PBS five times and mounted for microscopy. Nuclear β-Catenin intensities were calculated using IMARIS (Oxford Instruments) software.

Experiment [4] has as its system TCF. In words: TCF activity (TOP-Flash TCF luciferase reporter). The format is cell-based, human. The method, then:
Cells were plated at 5×10^3 cells per well and grown overnight in 12-well plates. Then, cells were transiently transfected with TOP-Flash TCF reporter plasmid (Millipore) using poly-jet transfection reagent (SignaGen). At 48 h post transfection, cells were treated with 20 µg/mL Anti-EpCAM EpAb2-6 (Produced in house) or MT201 (Produced in house) for 6 h or 400 ng/mL LGK974 (MedChemExpress) for 9 h or the combination, as indicated. In addition, cells were treated with EpEX (Produced in house by Expi293 Expression System) or recombinant Wnt3A (R & D systems) or the combination for 8 h. Finally, cells were lysed, and the luciferase assay was performed.
as §1
For orientation: Reporter assays use an easily measured gene product as a stand-in for the process of interest.

The test system of experiment [5] is colon cancer cells (SW620, HCT116). Description: Annexin-V/PI apoptosis assay. The format is cell-based, human. As to conditions: HCT116 cells; 20 μg/mL hEpAb2-6, mEpAb2-6 or MT201 for 24 hrs. The method, then:
Cells were seeded in 24-well plate ([…] cells per well) overnight and then treated with 20 μg/mL mEpAb2-6, hEpAb2-6 or MT201, or […] LGK974 (MedChemExpress) or the combination for 24 hrs. Cell pellets were collected, and an apoptosis assay was performed using an Annexin-V/PI apoptosis kit (BD Biosciences). Results were read by flow cytometry analysis percentage apoptotic cells was calculated.

In experiment [6] the test system is HCT116, HT29 and SW620 cells. Description: Tumorsphere assay. It is filed as cell-based, human. The settings on record: summary statement; CRC cells; tumorsphere and colony formation. The method, then: Cells were seeded in ultra-low adherent 6-well plates (5×10^4 cells per well) or 24-well plates (1×10^3 cells per well) and maintained in DMEM/F-12 supplemented with B27. Further, cells were treated with 20 μg/mL mEpAb2-6, hEpAb2-6 or MT201 (Produced in house), or 400 ng/mL LGK974 (MedChemExpress) or the combination, by direct addition to the culture medium. The entire culture medium, including the treatment component, was changed in every other day. Cells were cultured for 10 days, and on 10th day, spheres were counted and photographed under the microscope.

Experiment [7] relates to colon cancer cells (SW620, HCT116). As to conditions: general description of other anti-EpCAM antibodies; cited from earlier work.
For experiment [8], the target named is T1, EpCAM (Homo sapiens, UniProt P16422).
T1 construct: HEK293T cells were transfected with full length or EGF like-domain deletion mutant EpCAM-V5; V5; expressed in transfected cells; host or cells: HEK293T
T1 sequence (P16422 24-314): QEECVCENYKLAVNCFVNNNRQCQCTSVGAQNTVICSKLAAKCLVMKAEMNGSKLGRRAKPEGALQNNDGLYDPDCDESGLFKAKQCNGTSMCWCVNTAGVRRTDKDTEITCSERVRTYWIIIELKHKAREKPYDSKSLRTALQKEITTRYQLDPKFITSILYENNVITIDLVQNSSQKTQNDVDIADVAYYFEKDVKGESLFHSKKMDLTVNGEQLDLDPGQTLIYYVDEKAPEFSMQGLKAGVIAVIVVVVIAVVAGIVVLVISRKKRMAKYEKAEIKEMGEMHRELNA
The settings on record: general description of other anti-EpCAM antibodies; cited from earlier work.

[9] abbreviates: wild-type HCT116 cells, DAPT with or without EpEX.

Take `C[C@H](NC(=O)Cc1cc(F)cc(F)c1)C(=O)N[C@H](C(=O)OC(C)(C)C)c1ccccc1` [DAPT, reference compound]: the “Wnt receptor promoter activity” value in experiment [1] is reported as “almost completely blocked the effect”. In addition, the “expression of Wnt receptors” value in experiment [2] is reported as “reduced expression of Wnt receptors”. Also, in experiment [3] (setting [9]), the “nuclear translocation of β-Catenin” value is listed as “decreased nuclear translocation of β-Catenin”. In experiment [4] (setting [9]), the TCF activity result is given as “marginally decreased TCF activity”.

B1: hEpAb2-6: humanized form of EpAb2-6 (antibody, V domains shown)
VH: VKLQESGPELKKPGETVKISCKASGYTFTDYSMHWVKQAPGKGLKWMGWINTETGEPTYADDFKGRFAFSLETSASTAYLQINNLKNEDTATYFCARTAVYWGQGTTVTVSS
VL: DIQMTQSPSSLSASLGERVSLTCRASQEISVSLSWLQQEPDGTIKRLIYATSTLDSGVPKRFSGSRSGSDYSLTISSLESEDFVDYYCLQYASYPWTFGGGTKLEIKRADAAPTVS
Take B1: the induction of apoptosis entry in experiment [5] is “induces apoptosis”. The “nuclear translocation of β-Catenin” value in experiment [3] (HT29 cells, 20 μg/mL hEpAb2-6 or MT201 for 6 h) is “retained β-Catenin inhibitory activity; also recorded: attenuates nuclear translocation of β-Catenin”. In addition, in experiment [4] (HT29 cells, 20 µg/mL antibody for 6 h), the TCF activity result is reported as “retained β-Catenin inhibitory activity thus related TCF activity”. In addition, the cancer stemness properties entry in experiment [6] is recorded as “limits cancer stemness”.

B2: edrecolomab: other anti-EpCAM antibody targeting only the EGF I domain (antibody, chains of the INN, looked up, V domains shown)
VH: QVQLQQSGAELVRPGTSVKVSCKASGYAFTNYLIEWVKQRPGQGLEWIGVINPGSGGTNYNEKFKGKATLTADKSSSTAYMQLSSLTSDDSAVYFCARDGPWFAYWGQGTLVTVSA
VL: NIVMTQSPKSMSMSVGERVTLTCKASENVVTYVSWYQQKPEQSPKLLIYGASNRYTGVPDRFTGSGSATDFTLTISSVQAEDLADYHCGQGYSYPYTFGGGTKLEIK
With B2, the “inducing apoptosis of cancer cells” value in experiment [7] was “failing”. Moreover, the EpCAM domains bound result in experiment [8] is listed as “target only the well-described EGF I domain of EpCAM; also recorded: binding to domain I only”.
